In PMC10628234:

Assays:
CbFic2 [1] = molecular target: T1, CbFic2 (Coxiella burnetii, UniProt Q83DB6 1-378); assay: fluorescence anisotropy; Hill 0.988; conditions: protein: recombinant; tags: N-terminal G-H-M remnant after TEV cleavage; label: 5'-FITC on one strand
CbFic2 [2] = molecular target: T1, CbFic2; assay: fluorescence anisotropy; Hill 0.772; conditions: protein: recombinant; tags: N-terminal G-H-M remnant after TEV cleavage; label: 5'-FITC on one strand
CbFic2 [3] = molecular target: T1, CbFic2; assay: circular dichroism; conditions: protein: recombinant; tags: N-terminal G-H-M remnant after TEV cleavage; blunt, self-complementary, 2 copies
CbFic2 [4] = molecular target: T1, CbFic2; assay: fluorescence anisotropy; Hill 1.354; conditions: protein: recombinant; tags: N-terminal G-H-M remnant after TEV cleavage; label: 5'-FITC on one strand
TS-CbFic2 = TS-CbFic2 (Coxiella burnetii, UniProt Q83DB6 1-378); assay: fluorescence anisotropy; Hill 1.082; conditions: protein: recombinant; tags: N-terminal Twin-Strep + EK site (G-H-M-TS-G-A-EK-H-M); label: 5'-FITC on one strand

B1: 5'-FITC 60 bp dsDNA (dsDNA)
DNA 1: TCACTCAAGAAGCAGACACAGTAAGACACGGTTTAGCTGATTGTTTATCGATTAGGTCAA
DNA 2: TTGACCTAATCGATAAACAATCAGCTAAACCGTGTCTTACTGTGTCTGCTTCTTGAGTGA
Kd (CbFic2 [1]): 36.5 nM

B2: 5'-FITC 40 bp dsDNA (dsDNA)
DNA 1: TTGATTACCGTCAGTTGGAGCCCATATTATACATGAAGAC
DNA 2: GTCTTCATGTATAATATGGGCTCCAACTGACGGTAATCAA
Kd (CbFic2 [2]): 108 nM

B3: d(CG)10 duplex, 100% GC (dsDNA)
DNA 1: CGCGCGCGCGCGCGCGCGCG
DNA 2: CGCGCGCGCGCGCGCGCGCG
binding result (CbFic2 [3]): binds

B4: 5'-FITC 20 bp dsDNA (40% GC) (dsDNA)
DNA 1: AGTTTAGTGCGCTAATCTGA
DNA 2: TCAGATTAGCGCACTAAACT
Kd (CbFic2 [4]): 220 nM | Kd (TS-CbFic2): 116 nM
